The source of these data is patent US20130066046A1.

Assay [1] concerns the target human serum albumin (human) (UniProt P02768). The assay is described as follows: annotation in the curve's label on the competitive ELISA plot; the sheet does not say how this Kd was obtained (text paragraph 46 speaks of a reported Kd ~1x10^-9 M).
Assay [2] has the same target. As to the kind of experiment: competitive ELISA: soluble binding protein competes with plate-immobilised single maximum moiety for biotinylated human serum albumin, streptavidin-peroxidase readout.
Assay [3] shares this target. The assay is described as follows: SPR (Biacore), HSA immobilised on CM5 chip, 40 nM, mean+/-SD, N=4.
For assay [4] the target is unchanged. The assay is described as follows: competitive ELISA, slope around the 50% inhibition point (Illustration 1.2).
The target is the same in assay [5]. As to the kind of experiment: SPR (Biacore), HSA immobilised on CM5 chip.
Assay [6] shares this target. As to the kind of experiment: flow cytometry, binding protein immobilised on beads, fluorescein labeled albumin (Illustration 1.5).
For assay [7] the target is unchanged. As to the kind of experiment: competitive ELISA, ratio against construct 1 (Illustration 1.2).
The target is the same in assay [8]. As to the kind of experiment: SPR (Biacore), HSA immobilised on CM5 chip, limited number of replicates.
The target is the same in assay [9]. The assay is described as follows: competitive ELISA, soluble construct against immobilised binding protein for biotinylated HSA (Illustration 1.2).
For assay [10] the target is unchanged. The assay is described as follows: flow cytometry on beads, ratio against the single maximum moiety (Illustration 1.5).
Assay [11] concerns the target IgG (biotinylated). As to the kind of experiment: competitive ELISA, slope around the 50% inhibition point (Illustration 2.1).
For assay [12], the target named is IgG (biotinylated). The assay is described as follows: competitive ELISA, ratio against one maximum domain (Illustration 2.1).
Assay [13] concerns the target IgG (biotinylated). The assay is described as follows: competitive ELISA, soluble protein against immobilised two-moiety cassette for biotinylated IgG (Illustration 2.1).
The target in assay [14] is human IgG (from human serum; human immunoglobin G standard). The assay is described as follows: extraction from diluted human serum with coated silica beads, gel/blot comparison with standards (Illustration 2.2).

For the molecule “native material analogous to that of Sjöbring et al. (1991), streptococcal protein G”, the dissociation constant (Kd) in [1] amounted to 10 nM. The IC50 (read off the curve) (pmoles per well) in assay [2] came out at 10. In [3], the Kd turned out to be 0.7 nM and the kon is 123000 M⁻¹ s⁻¹.

B1: Construct "2" (functional cassette with two maximum moieties for human serum albumin) (designed binder, part only; not given: spacer and terminal segment, not shown: small tags and cut ends)
chain, part: AAALDQAKQAALKEFDRYGVSNYYKNLINKAKTVEGIMELQAQVVESAKKARISEATDGLSDFLKSQTSAEDTLKSIKLSEAKEMAIRELDAQGVSDFYKNKINNAKTVEGVVALKDLILNSLAAALDQAKQAALKEFDRYGVSNYYKNLINKAKTVEGIMELQAQVVESAKKARISEATDGLSDFLKSQTSAEDTLKSIKLSEAKEMAIRELDAQGVSDFYKNKINNAKTVEGVVALKDLILNSL
B1: the rate of change in [4] was 8.5. The same molecule showed a half-life in [5] of 7410 days. In assay [6], the Kd is 160 nM. Further, in [7], the R (ratio of 50% inhibition point, two maximum moieties / one maximum moiety) worked out at 0.4 and the S (ratio of rate of change, two maximum moieties / one maximum moiety) is 1.7. In [8], this molecule displayed a Kd of under 0.01 nM, a koff of under 1e-05 s⁻¹ and a kon of 300000 M⁻¹ s⁻¹. The molecule also yielded an IC50 in assay [9] of 15 nM. The F (ratio of apparent Kd, two maximum moieties / one maximum moiety) in assay [10] stood at 0.67.

B2: functional cassette with two maximum moieties (six minimum moieties) for IgG (designed binder)
chain: LGIDPFTALPKTDTYKLILNGKTLKGETTTEAVDAATAEKVFKQYANDNGVDGEWTYDDATKTFTVTEKPEVIDASELTPAVTTYKLVINGKTLKGETTTEAVDAATAEKVFKQYANDNGVDGEWTYDDATKTFTVTEKPEVIDASELTPAVTTYKLVINGKTLKGETTTKAVDAETAEKAFKQYANDNGVDGVWTYDDATKTFTVTEMVTESRALPKTDTYKLILNGKTLKGETTTEAVDAATAEKVFKQYANDNGVDGEWTYDDATKTFTVTEKPEVIDASELTPAVTTYKLVINGKTLKGETTTEAVDAATAEKVFKQYANDNGVDGEWTYDDATKTFTVTEKPEVIDASELTPAVTTYKLVINGKTLKGETTTKAVDAETAEKAFKQYANDNGVDGVWTYDDATKTFTVTEMVTEKGELKLCITGDALVALPEGES
As for B2, in the assay with IgG (biotinylated) [11], the rate of change came to 50. In the assay with IgG (biotinylated) [12], the R (ratio of 50% inhibition point, two maximum moieties / one maximum moiety) turned out to be 0.6 and the S (ratio of rate of change, two maximum moieties / one maximum moiety) worked out at 1.6. In the assay with IgG (biotinylated) [13], this molecule returned an IC50 of 1 nM. In addition, the percent of IgG extracted in assay [14] is over 99%.
